Reference: paper PMC2965120, “Ribonucleoprotein Particles Containing Non-Coding Y RNAs, Ro60, La and Nucleolin Are Not Required for Y RNA Function in DNA Replication”

Key:
Ro60;La = Ro60;La (human;human, UniProt P10155;P05455 1-538;1-408, |); assay: EMSA; 10-fold molar excess competitor tRNA; RNA:Ro60:La 1:4:4; super-shift, ternary complex; 10 mM Tris-HCl pH 7.5, 100 mM NaCl, 3 mM MgCl2, 1 mM DTT, 10-fold molar excess tRNA, 80 ng hY1 RNA, 15 min at 37 C; native 8% PAGE at 4 C; conditions: protein: recombinant;recombinant; copies: 1;1; label: 32P (alpha-32P UTP, internal)
La = target: T1, La (human, UniProt P05455 1-408); assay: EMSA; 10-fold molar excess competitor tRNA; >90% of RNA shifted at 1:1 protein:RNA; 10 mM Tris-HCl pH 7.5, 100 mM NaCl, 3 mM MgCl2, 1 mM DTT, 10-fold molar excess tRNA, 80 ng hY1 RNA, 15 min at 37 C; native 8% PAGE at 4 C; conditions: protein: recombinant; label: 32P (alpha-32P UTP, internal)
T1 sequence: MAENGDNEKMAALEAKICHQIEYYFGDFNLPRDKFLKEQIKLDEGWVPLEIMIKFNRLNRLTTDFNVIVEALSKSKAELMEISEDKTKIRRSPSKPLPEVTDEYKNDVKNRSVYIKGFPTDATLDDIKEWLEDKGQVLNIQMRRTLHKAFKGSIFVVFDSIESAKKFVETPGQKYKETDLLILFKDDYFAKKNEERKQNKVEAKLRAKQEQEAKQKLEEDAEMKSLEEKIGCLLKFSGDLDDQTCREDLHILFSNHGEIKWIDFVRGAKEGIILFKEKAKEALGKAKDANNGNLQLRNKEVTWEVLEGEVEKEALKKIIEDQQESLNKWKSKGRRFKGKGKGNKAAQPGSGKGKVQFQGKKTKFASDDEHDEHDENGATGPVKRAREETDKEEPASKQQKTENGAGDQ

Ro60 = Ro60 (human, UniProt P10155 1-538); assay: EMSA; 10-fold molar excess competitor tRNA; about 30-40% of RNA shifted at 4:1 protein:RNA; 10 mM Tris-HCl pH 7.5, 100 mM NaCl, 3 mM MgCl2, 1 mM DTT, 10-fold molar excess tRNA, 80 ng hY1 RNA, 15 min at 37 C; native 8% PAGE at 4 C; conditions: protein: recombinant; tags: poly-His (pET28a); label: 32P (alpha-32P UTP, internal)

Measured: binding result

Ro60;La, sequence (P10155 whole entry, one chain of several): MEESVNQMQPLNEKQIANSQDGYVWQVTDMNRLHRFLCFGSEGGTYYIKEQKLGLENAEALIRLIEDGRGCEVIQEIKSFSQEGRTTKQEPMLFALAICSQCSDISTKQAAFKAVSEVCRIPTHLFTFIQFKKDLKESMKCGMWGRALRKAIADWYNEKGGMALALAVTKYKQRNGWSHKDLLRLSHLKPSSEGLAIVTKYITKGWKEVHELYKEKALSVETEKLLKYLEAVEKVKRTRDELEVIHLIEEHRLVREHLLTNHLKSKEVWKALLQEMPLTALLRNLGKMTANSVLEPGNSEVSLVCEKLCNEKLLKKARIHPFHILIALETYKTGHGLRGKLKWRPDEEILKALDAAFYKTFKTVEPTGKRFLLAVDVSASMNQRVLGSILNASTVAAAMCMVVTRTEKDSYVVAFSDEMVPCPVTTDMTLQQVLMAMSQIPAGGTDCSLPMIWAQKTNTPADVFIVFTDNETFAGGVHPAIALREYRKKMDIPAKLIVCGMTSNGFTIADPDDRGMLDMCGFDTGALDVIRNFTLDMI
Ro60, sequence (P10155 whole entry): as the sequence (P10155 whole entry, one chain of several) above

B1: hY1 RNA (structured_RNA)
RNA: GGCUGGUCCGAAGGUAGUGAGUUAUCUCAAUUGAUUGUUCACAGUCAGUUACAGAUCGAACUCCUUGUUCUACUCUUUCCCCCCUUCUCACUACUGCACUUGACUAGUCUUU
binds: all assays above
